For this assay, the system named is leukocytes. As to the kind of experiment: Exogenous administration of Dkk-1 protein to mice. Format: in vivo, C57BL/6 mice. As to the method:
FIG. 11, comprising FIG. 11A through FIG. 11J, depicts results of experiments showing Dkk-1 facilitates leukocyte migration and regulates leukocyte-platelet aggregate formation in type 2 inflammation. FIG. 11A depicts flow cytometry analysis of CD45^+ cells in lung homogenates from nine-week old Dkk-1^d/d mice and wildtype littermate controls (n=5-6/group) 72 hours after challenge with 30 μg HDM allergen extract. FIG. 11B depicts analysis of percentages of CD45^+CD41^+ cells in peripheral blood from nine-week old Dkk-1^d/d mice and wildtype littermate controls collected at 4 hours and 24 hours after allergen challenge. FIG. 11C depicts flow cytometry analysis of CD45+ cells after Dkk-1 protein (300 ng/mouse) was injected intraperitoneally. […]
FIG. 12, comprising FIG. 12A through FIG. 12G, depicts results of experiments showing regulation of LPA formation by Dkk-1. […] B-cell and CD4 T cell among CD45^+CD41^+ cells were monitored at the indicated time points in Dkk-1^d/d mice and their wildtype littermate controls challenged with 30 μg HDM extract/mouse. […] Mean fluorescence intensity was normalized to unchallenged C57BL/6 mice. […] Normalized MFI for ICAM-1 expression and the percentages of LFA-1 high cells were measured by flow cytometry following injection of 300 ng of Dkk-1 intraperitoneally. […]

The values that follow come from patent US11135223B2, “Compositions and methods for inhibiting Dkk-1” (YALE UNIVERSITY, priority 2016, dated 2021).

B1: Dkk-1: Wnt antagonist Dickkopf-1 protein, expressed in CHO cells, added to cells or injected into mice (protein, UniProt O94907 32-266, looked up)
Dickkopf-related protein 1: TLNSVLNSNAIKNLPPPLGGAAGHPGSAVSAAPGILYPGGNKYQTIDNYQPYPCAEDEECGTDEYCASPTRGGDAGVQICLACRKRRKRCMRHAMCCPGNYCKNGICVSSDQNHFRGEIEETITESFGNDHSTLDGYSRRTTLSSKMYHTKGQEGSVCLRSSDCASGLCCARHFWSKICKPVLKEGQVCTKHRRKGSHGLEIFQRCYCGEGLSCRIQKDHHQASNSSRLHTCQRH
On to B1, for which the LPA formation result (300 ng of Dkk-1, without allergen or parasite challenge) is “increased”. Also, the “number of infiltrated leukocytes in the lung” value (300 ng/mouse intraperitoneally, 72 hours after administration) was “did not increase”.
